According to a protein production outcome set (Wang et al. 2014):

Test: label from the status in PepcDB records
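Further: failed if final PepcDB status was selected cloned or expressed and not failed if soluble or beyond.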

| Sequence | protein production |
| --- | --- |
| MKNLEKCILCGSHNIVPHWKNVRSYNVSKCLDCSFLFLHEIIDDHELENYYSQSYFMASYAKTENNLIDAANNPKITAEAKEYANLIKLHHPEAHNVGEIGCSWGYLLYNLQNFGYSAKGFELSKTTAEMGSKQLGINITSGFFETQYNQFDVLILRHVLEHVPDPQDLLEKIYDSIKKDGLFILEGPNLDSISSRLFGKNVSWVSPPDHISFPNFISLIMACEKLGFTCIHKSSRRGRGISIFHQALLNSVGLMFGGKEKAKVNLGGINEKPNNQQLSSLKSAALKIVDFLDFLSSPMQPFLKQALLEEEMLIIFKKLEHHHHHH | failed |
| MKNLKIIWIYRLGLLLLVFLCLLVFLKIKPLWAPIIFVCKVAITPFLIACFIAYLLHPLIEKIHKEGMPRTLAILLIYILFFGGIGYGIYKGTPVVIKQLQEINEQFPQFTKMYDSWMDGVTEQTANFPSFIHEKVKQIFVGVETKIQALLNKVMSTARGVLDSLLIIFLIPFIVFYILKDYGEFYHIFWKLVPSKWRSTGQMLAKEIDKSLGSYIRGQLFVCLVLGGVSALSFWFIGMKYPLLLGIIIGVTDIIPYFGPILGAIPTLMIAATVSTSLLIKAGIAIAILQFVESNILSPYIVGKSLRMHPVIIMLALLVGGEVGGIVGLLISVPILAVIRTVIVHVRPLWKKEDMQ | failed |
| MKNLKNKHFALLYLVLFLVLAKLSPFIITALIMGLYLSIIIDYVARFLEVFIKKPRVLPRVISNVLVFLTIAYSAVNFFPVIVREAQKVFSEIDRIRSGLENIDIPGWLSSILSSISASFSEGALSLVNKIVGYVPSFITAAILIVITAFIVSSLKRLIKENVHYLFPTNPSDGKEFLKTTYTEFERFVGGQVLVAIFVGLFVGFGAFIFKIPSAFFLGMLAFVTDFVPYLGVVISAIPLLMLAFSVHGLSGLLIGTIILVAANQLEMWVLAPKIQSNTLNVHWFIILIMILILGDLFSFGGVLIALPFLIFLKNFWKQYVMGG | failed |
| MKNPIIDNIPCVLLAGGKSSRFITNNIQTNKALMPLKSYSSLLEYQYTRLLKLFKKVIISTKKSYELNAPYLLEKESDLFSPLFGIHNAFLTLQTPYIFFIPIDTPLVSFESIKALCGIKNFSVTYAKSPTKEHYLISLWHQNTLNALIYALKTQNYRLSDLVKNTSSVAINFDKEEEFLNLNTLKDYELAVQILKKRANG | failed |
| MKNRAWLYVILTCIFEIFWVFGFNTANTWWHWIIILGVIAVDFHFLSKACEHLATGTVYAVFAGAGTVGTFLMDVFLFGGSFSVGKLFFIVMVVAGVIGLKLADNKEETVEGAA | failed |
| MKNRYIILSILLFSVACRKFEPYPVFSKLALKKAFVDLGTHKLATFSVIRNSNYLVVFESGLGDDHTIWNSSNIALKAADTIDVVTYDRANRGQSGNGPVPRDVARLQSELGSVIDSFANGRKVVLIGHSLGGFMIRAWAVNNPTKVAGMLFIDPSHEKAGLDSAQNQQAEDYMYGKWSSYGTNFGAALESREWVEDNMYMATLGNLPDVPVIVLTAMKVDPPNKVEILKPWYDAHESLGTGVTDFTHVSIPNSGHMVMIDQPQILLNYIHVLLAKLH | failed |
| MKNSENDYIQSLFQILPGLLTAFLVACLSKFLAIWLPSLGAATIAILLGIFLGNTFVRGANLNRGTKVAESKLLEFSVVLLGTTVTFQTIAQIGLQGVAFILIQMSLTIIFAYLIGKKLAFSDNMSLLMAGGNAVCGSSAIASIAPAIQADEEEKGQIITLVNLLGTVLMLTLPILSGILYGTNLLARSALIGGTLQSVGQVVASANMVNENAVQLAMLFKIMRIVLLVAVVYLFGRFKQSKTAESEAELVEVTKKSSALPWYVVGFFIACVFNSLIHFPVVISETAHFFSSWFEITALAAIGLRLDFKKFFQEGKRFLIYGLSVGTVQVVLAILLLALLQF | failed |
| MKNVEVLTGDPKKAILKLSAPMVVSNLIFTLYNLVDGIWVAGLGPDALSAVGLFFPIFFVFIAISFGLSVGANSAVSRRIGAKRYDAACVAATLAVAMGILVSIPMTLSVVFLNGVMVFLGADGEILRLAVDYGSIMVLGSVFLVFSNVSAGILNGEGNARMAMYANAAGSLLNMVLDPIFIYLLGYGIAGAAIASVISMALSSIVFSFWFLSGRSYVRFRVAGWNLPTVFDLLRVGMPASLSMLTMSVAFMLINRVVIETGGSEGLAAYTSAWRLIQFGFVPLFGVSAALTAVSGAAYGARNPRKIGESLNYTVKLLLAVDAAILALMVAFAPQIALIFTYTEVSAVMYEEIVRTIRIAAFVLLFAPLGVSSSAVFQGMGKGERSFAITVLRAIVFQVSLCYVLAVPFGFDGVLLGFVLGEALGCFTGFSWVRLTVRRLERCLLST | failed |
| MKPALRRGLVWIGCTASSWGGLVLPSAWSPAAIAQTRAPTNQTGMQLQINGRAIAGQWVVEPASQGSFIWIEEVALRNGLGLELLPGLSTTRQAIRWFSDGRVAEGVEQVPARRQNGRRFLEVSSLARRSGWSLAVLADQLVIQLPAATLRNLRDGQQGANRRLVLDFDRPTPWEWDAIGQQLRFDGSVPAQLVPSLQRYGIQAEQQGDRTSLRLPAGLGVRVSSLGSPDRIFIDLPTTTGLLSPPAGLGSNPAPLTPAPPDLAGTQLQQRQVTVDGATFPVFVIQLDLRQPNVRLAPIWAGNGSLEGTQVLQAVARDRGAAIAINAGFFNRNNRLPLGAIRRDNIWYSGPILNRGAMAWNDQGEVLIDRLGLQETLQLSSGTRIPLVALNSGYVRAGAARYTEAWGNSYQTILDNEVVVTVQGDRVVSQSQADKAGSNRFTIPRNGYLIVLRSANSLRTSLVNGTTIQVLQQAQPSQFDRFPHALGGGPLLVKSGRVVVNPQAEGFSRAFEIEAAPRSAIGLMPDGRLVLVAAHEQNQGQGPTLPQMAAIMQQLGVVDALNFDGGSSTSLIVNGQLVNRARGSAARVHNGLGVFLGPTTPASLR | failed |
| MKPDIYENNREGILCVYKNEKWLVCIKNWKPDNDIEGIAHLEIHHSTDEQFILSAGKAILITAEKENDKFNIELTLMEKGKVYNVPAECWFYSITQKDTKMMYVQDSNCSMDNSDFCDLSKEEIEYIQTNARKLFEK | not failed |
| MKPLKEYLLIPTQMRVFETQTQAIETSLSVNAQTSESSEAFTVKKDPHEIKVTGKKSGESELVYDLAGFPIKKTKVHVLPDLKVIPGGQSIGVKLHSVGVLVGFHQINTSEGKKSPGETAGIEAGDIIIEMNGQKIEKMNDVAPFIQKAGKTGESLDLLIKRDKQKIKTKLIPEKDEGEGKYRIGLYIRDSAAGIGTMTFYEPKTKKYGALGHVISDMDTKKPIVVENGEIVKSTVTSIEKGTGGNPGEKLARFSSERKTIGDINRNSPFGIFGTLHQPIQNNISDQALPVAFSTEVKKGPAEILTVIDDDKVEKFDIEIVSTTPQKFPATKGMVLKITDPRLLKETGGIVQGMSGSPIIQNGKVIGAVTHVFVNDPTSGYGVHIEWMLSEAGIDIYGKEKASLEHHHHHH | not failed |
| MKPNNVNNQNKRHQSRWVITSATAMILTTLTIASQAAAADDTVTTTTNEPTNSQLNTNTQVNATQVNLKADTSTSVSTIKSDQSAVAATSPTTSTGSPSEHSSSVNTNPQQQSANPASQSQATTTSESTPTTDIKHPTQTAPAQTTSASTTEPTTESNTESATDSQAKATTTDNQASKQPSQQAVPASSNSTTTEVNTQSATSSASTDDKIVTNVNQEKLVLKTNQPVVRAISRTASENINDWMPNTLLQQEVLSQLRKQNPDRTWNSAADITKADMLLLTTYYGKDTYIDGKTSYSLEGLQYATNLTTVWLNNNLNAPSGSYYSDVTDISPLANLQKLQVVNIQQNRITDISPLANLKNLTEVDAAYNHISDFSPLKGFKNLKGTFSNQFITLPPAYISADNNIATLAIDCYLPDGSKVQLKPNNGVGETVFYKNGQLYVRWYFNGAGGGNYDSNGHIYYTNMKPQQPGLTGPTFNGTTVIPMDDYYFMTAASDGNNFVVVRPYVLAATAAPITVKYVDALTGESLVTADLTLNGIVGQPYTTQRIDDELPNYDFTNIVGNASGVFTADAQTVTYYYTRKDAGDITIHMVDTNGNLVYEPQILPGKHNLGNAYNLDAPTFDHFKLHQTIGNAAGVFTTDPQSITFVYVRLDAGNITVKYQDKQGHQLKPDKTVSGSQSLGQTYTTEPLGIENYTLMTTPANATGTFTDQEQTVIYVYVRRDAGQIVVKYQDSAGNPLAPDKLLDGKEQLGVAYQTAAISIPNFYLVATPANATGTFSTDTQTVIYQYARSNAGHITVKYQDANGTTLAPDDVLTGDGQLGRPYQTSAKTIENYRLIQTPANATGQFSDQAQTVIYVYTREDAGDITVQYLDENGQQLAADSVLSGQGQLGQPYETSPLNINGYTVKSTQGNTTGTYTVQPQRVVYIYERTAGQPVTAKYQDQDGKSIHPDVVHSGYLGDNYSTEQLVIDGYTFKAVQGDVSGTFGTSAKTVTYVYTESTPTIPDTQGTVTVHYVTKDGIKLNEPTVLSGKTGTTYQTVPLTFTDHELVGQPENATGLFTADNVDVTYVYQATDTTGTDDIIDPEEPEQPTKPIKPTTPETPNEPGTTVTQPDRIKPTQPAVAVKPAATVKPTLKPAAAQASLVKTTSPVTEHSAQLPQTDEQTGKLAVILGLLLSVVTLGFYGKNRQS | failed |
| MKPQVYHVDAFTSQPFRGNSAGVVFPADNLSEAQMQLIARELGHSETAFLLHSDDSDVRIRYFTPTVEVPICGHATVAAHYVRAKVLGLGNCTIWQTSLAGKHRVTIEKHNDDYRISLEQGTPGFEPPLEGETRAAIINALHLTEDDILPGLPIQVATTGHSKVMIPLKPEVDIDALSPDLNALTAISKKIGCNGFFPFQIRPGKNETDGRMFSPAIGIVEDPVTGNANGPMGAWLVHHNVLPHDGNVLRVKGHQGRALGRDGMIEVTVTIRDNQPEKVTISGTAVILFHAEWAIEL | not failed |
| MKPSCRPGAALEADRCPSFPDRSAATPHRGLAWAMAVVLIGGCATTRDIEQLQTTSQREPTNAQLKLKYMDERDRQVKDLLDGADRLRLIHDFDRAQVLLLQALRLDPGNERGRRIAAAIDVDRRNGAVLQEAERMMARGSYDGAAERVERVLAETPNDAGALRLYREISEKRRLQKQAAEEKNAAASIMRKPVSLQFRDANVRMVFEALSRTTGLSVIFDRDVRVDLKTTIFVSNASLEDTVDMILLQNQLAKKVLNANTVFIYPATPAKQQEYQDLKVRTFQLSNTDAKHIDTLLKNLLKIKEIVTDERANTVSIRATPETIRVAERMIAAQDLPEPEVMLEVEVLEVSRDRLTDLGIDWPNSFSLGTPSSASTWGALHHLTVNQLTASGLSVTANLKLTDTDANLLASPRIRTRNKEKAKILIGDKVPVISSSSVPSTSGPVYSQSIQYLDVGIKLEVEPQVYRDNDVGIKMSLEVSNITQIISSSNAQTGLSSLAYQIGTRNASTTLRLKDGETQILGGLIQDEDRDAANKVPGLGQLPVLGRLFSNHNGDHKKTEIVLQITPHIVRPQLAADADTREIWSGTDSTVRTEQLRLDPPGVAAPATPAAPAAPAAALPAPAAGVAVVSPGAVGGGTTGGEQTPKAAAPAAAGGVVPPNGAFGQPPAAPRTTPPPAMFGGRFMTTVPPPEGVVPPAPPAPAAAPAAVAAPAAAAPAAPAAGTAGPEAAAAVSPTEAAPPAPAPAAPYTPAPAAPAAAPPAASPPPIVPTPPSDMPSDNPLHPIPTGAY | failed |
| MKPSTEWWRYLAPLAVIAIIALLPVPAGLENHTWLYFAVFTGVIVGLILEPVPGAVVAMVGISIIAILSPWLLFSPEQLAQPGFKFTAKSLSWAVSGFSNSVIWLIFAAFMFGTGYEKTGLGRRIALILVKKMGHRTLFLGYAVMFSELILAPVTPSNSARGAGIIYPIIRNLPPLYQSQPNDSSSRSIGSYIMWMGIVADCVTSAIFLTAMAPNLLLIGLMKSASHATLSWGDWFLGMLPLSILLVLLVPWLAYVLYPPVLKSGDQVPRWAETELQAMGPLCSREKRMLGLMVGALVLWIFGGDYIDAAMVGYSVVALMLLLRIISWDDIVSNKAAWNVFFWLASLITLATGLNNTGFISWFGKLLAGSLSGYSPTMVMVALIVVFYLLRYFFASATAYTSALAPMMIAAALAMPEIPLPVFCLMVGAAIGLGSILTPYATGPSPIYYGSGYLPTADYWRLGAIFGLIFLVLLVITGLLWMPVVLL | failed |
